In PMC3556581 (Nature structural & molecular biology, 2009):

How the values were obtained:
[1] = target: CypA domain of rhesus macaque TRIMCyp (RhTC CypA) (rhesus macaque, UniProt P62940 1-165, D66N | R69H); assay: ITC
[2] = target: parental cyclophilin A (CypA) (rhesus macaque; identical in sequence …, UniProt P62940 1-165); assay: ITC

B1: HIV-2 N-terminal capsid (CA^N) domain (domain or fragment)
chain: not shown
Kd [1]: 3 µM
dH [1]: -1.16 kcal/mol
Kd [2]: 91 µM
